From article PMC10868436 come the findings set out here.

This assay addresses consensus sphingomyelinase. Put plainly: BLI; ForteBio Octet RED96, […]; 1:1 binding model, […]; triplicate.

B1: TPL0674_03_A04 (scFv, V domains shown)
VH: QVQLVQSGSELKKPGASVKVSCKASGYTFTSYAMNWVRQAPGQGLEWMGWINTNTGNPTYAQGFTGRFVFSLDTSVSTAYLQISSLKAEDTAVYYCARDQGGDRHFGYWGQGTTVTVSS
VL: QSELTQPPSASGTPGQRVTISCSGSSSNIGSHRVNWYQQLPGTAPKLLIYSNYHRPAGVPDRFSASKSGTSASLAISGLQSEDEADYYCAAWDDSLNGYVFGTGTQLTVL
The Kd is the concentration at which binding is half-saturated. For B1, the Kd was determined as 31.5 nM.

B2: TPL0674_03_F05 (scFv, V domains shown)
VH: EVQLVQSGAEVKKPGASVRVSCKASGYSITNYGISWVRQAPGQGLEWMGWINTYNGNTNYAQKFQGRVTMTRDTSISTAYMELSRLRSDDTAVYYCARDHPYRGMDVWGQGTLVTVSS
VL: SYELTQDPAVSVALGQTVRITCQGDSLRSYYASWYQQKPGQAPVLVIYGKNNRPSGIPDRFSGSSSGNTASLTITGAQAEDEADYYCNSRDSSGNHPHVVFGGGTKLTVL
As for B2, the Kd is 60.2 nM.
